The results in this text go back to publication PMC9608704.

“And” between values parts separate entries of the source, which are not always exact repeats. Equal values may be shown once.

The experiment deals with HLA-B*2704 heavy chain (human). Briefly: non-reducing SDS-PAGE with Western blot; cell surface proteins of C1R-B*2704 or C1R-B*2704 C67S cells biotinylated, extracted in the presence of iodoacetamide, precipitated by avidin-agarose beads, separated by non-reducing SDS-PAGE and blotted with the BH2 antibody; disulfide-linked oligomers judged by mobility.

As a reminder, the stoichiometry N is the number of molecules, sites or subunits per partner or assembly. On to “HLA-B*2704 heavy chain (natural protein)”, for which the stoichiometry N was 2 and 4.
